These are literature values, as cited in paper PMC4858162.

Bounds are passed on as bounds.

The target of the series is DNA polymerase III beta sliding clamp (Escherichia coli) (UniProt P0A988).

As a reminder, the Kd is a measure of binding affinity in units of concentration. Regarding “DNA polymerase III beta sliding clamp (from UniProt P0A988)”, the Kd is less than 0.06 nM.
